± gives the uncertainty stated by the source.

The nature of the series: self-splicing fitness, log relative to wild type (ln ratio); higher = more splicing; Tetrahymena group I intron in knt gene, E. coli kanamycin selection, DiMSum; sequences stand for … in CUCUCU…GGAGGGAAAAGUUAUCAGGCAUGCACCUGGUAGCUAGUCUUUAAACCAAUAGAUUGCAUCGGUUUAAAAGGCAAGACCGUCAAAUUGCGGGAAAGGGGUCAACAGCCGUUCAGUACCAAGUCUCAGGGGAAACUUUGAGAUGGCCUUGCAAAGGGUAUGGUAAUAAGCUGACGGACAUGGUCCUAACCACGCAGCCAAGUCCUAAGUCAACAGAUCUUCUGUUGAUAUGGAUGCAGUUCACAGACUAAAUGUCGGUCGGGGAAGAUGUAUUCUUCUCAUAAGAUAUAGUCGGACCUCUCCUUAAUGGGAGCUAGCGGAUGAAGUGAUGCAACACUGGAGCCGCUGGGAACUAAUUUGUAUGCGAAAGUAUAUUGAUUAGUUUUGGAGUACUCGUGGUCG
In short, it runs like this: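 The eight P1ex-region nucleotides of an intron in the knt kanamycin-resistance gene on pET-22b(+) were all randomised and the library put into E. coli BL21(DE3). Six replicate transformations were grown overnight at 37°C or 30°C on LB agar with or without 25 μg/mL kanamycin, together with 100 μg/mL carbenicillin, 50 μM IPTG and 0.2% rhamnose. Colonies were pooled and amplicon-sequenced on an Illumina HiSeq 2500. Fitness from DiMSum is the error-weighted combination of wild-type-normalised replicate fold changes, kanamycin over none.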

Consider AGUGAGCAAUAUUACGCUUC, for which the “self-splicing fitness (ln)” value (30 °C) was -2.41 ± 0.25 and the “self-splicing fitness (ln)” value (37 °C) is -2.7 ± 0.34. For UCACAGCAAUAUUACGGUUG, in that order: -1.41 ± 0.087 and -0.981 ± 0.11. CACCAGCAAUAUUACGUCGA: the “self-splicing fitness (ln)” value (30 °C) is -1.89 ± 0.086 and the “self-splicing fitness (ln)” value (37 °C) was -0.942 ± 0.088. The like results for UGGUAGCAAUAUUACGAUUC were, in that order, -2.63 ± 0.24 and -2.05 ± 0.26.

As for GCCCAGCAAUAUUACGGCGU, the “self-splicing fitness (ln)” value (30 °C) is -1.12 ± 0.064 and the “self-splicing fitness (ln)” value (37 °C) was -0.731 ± 0.089.

In the case of ACAUAGCAAUAUUACGAGCG, the “self-splicing fitness (ln)” value by setting is: (30 °C) -0.74 ± 0.12; (37 °C) -0.0992 ± 0.12.

GCUAAGCAAUAUUACGGACA: the “self-splicing fitness (ln)” value was -1.35 ± 0.12 (30 °C) and -1.17 ± 0.12 (37 °C).

Take AAUUAGCAAUAUUACGAGGG: the “self-splicing fitness (ln)” value is, setting by setting: (30 °C) -3.23 ± 0.23; (37 °C) -2.93 ± 0.3. Take GGCCAGCAAUAUUACGGGGU: the “self-splicing fitness (ln)” value runs as follows: (30 °C) -3.68 ± 0.24; (37 °C) -3.21 ± 0.26. The like results for AUAUAGCAAUAUUACGACGA were, in that order, -1.1 ± 0.22 and -0.564 ± 0.28.

Consider CACUAGCAAUAUUACGGCGG, for which the “self-splicing fitness (ln)” value is -0.21 ± 0.079 (30 °C) and -0.0455 ± 0.092 (37 °C). For GGUCAGCAAUAUUACGGGUU, in that order: -1.25 ± 0.083 and -0.194 ± 0.089. For CAGCAGCAAUAUUACGUGCU, in that order: -3.3 ± 0.13 and -1.94 ± 0.12. As to CUGUAGCAAUAUUACGGGGA, the “self-splicing fitness (ln)” value by setting is: (30 °C) -2.67 ± 0.17; (37 °C) -2.9 ± 0.24. For CCUGAGCAAUAUUACGGAUG, in that order: -1.52 ± 0.057 and -1.31 ± 0.078. The like results for AGGUAGCAAUAUUACGAGGC were, in that order, -3.696 ± 0.036 and -2.87 ± 0.047.

In the case of UCGAAGCAAUAUUACGAAAA, the “self-splicing fitness (ln)” value (30 °C) is -3.1 ± 0.3 and the “self-splicing fitness (ln)” value (37 °C) was -1.54 ± 0.21. The like results for AGUAAGCAAUAUUACGUCCG were, in that order, -2.03 ± 0.17 and -0.809 ± 0.21. For the sequence GUUCAGCAAUAUUACGCUUU, the “self-splicing fitness (ln)” value (30 °C) was -0.726 ± 0.088 and the “self-splicing fitness (ln)” value (37 °C) was found to be 0.0124 ± 0.11. For GUCCAGCAAUAUUACGACAG, in that order: -3.57 ± 0.36 and -1.93 ± 0.41.

For CUCGAGCAAUAUUACGUGGG, the “self-splicing fitness (ln)” value is -3.08 ± 0.14 (30 °C) and -2.88 ± 0.2 (37 °C). For GCUAAGCAAUAUUACGCCGU, in that order: -3.45 ± 0.3 and -0.927 ± 0.31. The like results for GCCGAGCAAUAUUACGAUGU were, in that order, -0.691 ± 0.057 and -0.267 ± 0.069.

As for AGUAAGCAAUAUUACGGCCC, the “self-splicing fitness (ln)” value is, setting by setting: (30 °C) -0.317 ± 0.14; (37 °C) -0.0183 ± 0.22.

As to CAGAAGCAAUAUUACGCGGU, the “self-splicing fitness (ln)” value reads like this: (30 °C) -3.61 ± 0.12; (37 °C) -2.34 ± 0.14.

As for AGCGAGCAAUAUUACGGACG, the “self-splicing fitness (ln)” value (37 °C) is -1.9 ± 0.36. Regarding UCCAAGCAAUAUUACGAGUG, the “self-splicing fitness (ln)” value runs as follows: (30 °C) -2.75 ± 0.13; (37 °C) -2.03 ± 0.11.

Consider UUACAGCAAUAUUACGGCGC, for which the “self-splicing fitness (ln)” value was -2.88 ± 0.18 (30 °C) and -0.508 ± 0.13 (37 °C). Regarding UUUGAGCAAUAUUACGCGAC, the “self-splicing fitness (ln)” value (30 °C) is -2.15 ± 0.35. In the case of CCUUAGCAAUAUUACGAUCA, the “self-splicing fitness (ln)” value (37 °C) is -2.51 ± 0.38. On to ACCGAGCAAUAUUACGAUGA, for which the “self-splicing fitness (ln)” value (30 °C) was -2.47 ± 0.17 and the “self-splicing fitness (ln)” value (37 °C) was -2.73 ± 0.28.

As for ACUCAGCAAUAUUACGGUCU, the “self-splicing fitness (ln)” value by setting is: (30 °C) -0.745 ± 0.057; (37 °C) 0.311 ± 0.079. The like results for CGUGAGCAAUAUUACGUGUA were, in that order, -3.18 ± 0.22 and -3.91 ± 0.31. The like results for AGCAAGCAAUAUUACGCGGG were, in that order, -3.87 ± 0.21 and -3.71 ± 0.26. For the sequence AUUGAGCAAUAUUACGGAAC, under “30 °C”, the “self-splicing fitness (ln)” value is -3.09 ± 0.23. CAAUAGCAAUAUUACGGAGC: the “self-splicing fitness (ln)” value is -2.48 ± 0.22 (30 °C) and -2.53 ± 0.45 (37 °C). The like results for GAUCAGCAAUAUUACGCGUC were, in that order, -2.9 ± 0.18 and -3.33 ± 0.4. For GGUUAGCAAUAUUACGCUGU, in that order: -2.1 ± 0.15 and -0.41 ± 0.14. The like results for GAGUAGCAAUAUUACGGACU were, in that order, -0.25 ± 0.072 and -0.487 ± 0.096.
